{
  "source": "patent US5972636A",
  "about": "(priority 1997, dated 1999)",
  "key": {"[1]": {"test_system": "fraction II (ATP-dependent degradative system)", "experiment": "Hydrolysis of Ub-125I-lysozyme by muscle fraction II", "assay_type": "biochemical, rabbit", "procedure": "All enzymatic assays were linear, except where noted (see below). When present, ATP was 2 mM in assays. Unless otherwise stated, in all assays, 50 μl aliquots of the fraction from the column or of the purified protease (10 μg)were incubated in 200 μl containing 50 mM TRIS-HCl (pH 7.8), 10 mM MgCl2, 1 mM DTT, and 5 μg of the radioactive proteins, 0.5 μg of Ub-conjugates, or 0.5 mM of the fluorogenic peptide. For assays of proteolysis, the reaction mixtures contained approximately 15,000 cpm of Ub-lysozyme or labeled proteins. Degradation of ^125 I-lysozyme, Ub-^125 I-lysozyme, ^14 C-casein, ^14 C-hemoglobin and OH/O2^- treated ^14 C-hemoglobin were assayed by measuring the production of acid-soluble radioactivity after 60 min of incubation at 37° C. Ub-^125 I-lysozyme was prepared using liver fraction II, according to the method of Hough and Rechsteiner. Hough et al., J. Biol. Chem. 261:2400-2408 (1986), Hough, R. and Rechsteiner, M. J. Biol. Chem. 261:2391-2399 (1986). ^125 I-lysozyme and Ub were prepared as described previously. Waxman et al., J. Biol. Chem. 262:2451-2457 (1987), Fagan et al., BioChem. J. 243:335-343 (1987). The concentration of conjugates was calculated based on the specific radioactivity of the ^125 I-lysxozyme used for conjugate synthesis. One unit of sLLVT-MCA represents 10 nmol of MCA produced in 30 min. […]"}, "[2]": {"test_system": "new protease (multipain) from skeletal muscle"}, "[3]": {"test_system": "1500 kDa complex (proteasome-multipain)"}, "[4]": {"test_system": "proteasome-multipain complex formation", "assay_type": "biochemical, rabbit"}, "[5]": {"test_system": "denervated soleus", "assay_type": "cell-based, rat"}, "[6]": {"molecular_target": "T1, proteasome from skeletal muscle (Oryctolagus cuniculus, UniProt G1T4Q9)", "T1 construct": "from tissue; host or cells: rabbit skeletal (psoas) muscle, proteasome fraction after Mono Q and Superose 6", "assay_type": "biochemical, rabbit"}, "[7]": {"test_system": "Ub-lysozyme conjugates", "experiment": "Degradation of Ub-lysozyme conjugates in 1st and 2nd hour with additions at 60 min", "assay_type": "biochemical, rabbit", "details": "substance added at 60 min, cystatin 4 μM"}},
  "note": "“Also recorded” adds a separate entry of the source.",
  "data": [
    {"molecule": "Nc1ncnc2c1ncn2[C@@H]1O[C@H](COP(=O)(O)CP(=O)(O)OP(=O)(O)O)[C@@H](O)[C@H]1O", "note": "[AMP-CPP]", "values": [
      {"measurement": "effect on degradation of Ub-conjugated proteins by fraction II, in words", "setting": "[1]", "value": "did not stimulate the degradation of Ub-conjugated proteins"}
    ]},
    {"molecule": "Nc1ncnc2c1ncn2[C@@H]1O[C@H](COP(=O)(O)OP(=O)(O)NP(=O)(O)O)[C@@H](O)[C@H]1O", "note": "[AMP-PNP, adenyl 5'-oyl-imidodiphosphate]", "values": [
      {"measurement": "effect of nucleotides on Ub-125I-lysozyme hydrolysis by the purified enzyme, in words", "setting": "[2]; Table III", "value": "No stimulation"},
      {"measurement": "Relative activity (%), degradation of Ub-125I-lysozyme by the new activity", "setting": "[2]; Table III, None = 100, 2 mM of the nucleotides or 10 mM PPi, 37° C. 1 hour", "value": 90, "unit": "%"},
      {"measurement": "effect on degradation of Ub-conjugated proteins by fraction II, in words", "setting": "[1]", "value": "did not stimulate the degradation of Ub-conjugated proteins"},
      {"measurement": "effect of nucleotides on Ub-125I-lysozyme hydrolysis by the complex, in words", "setting": "[3]; Table VIII", "value": "No stimulation"},
      {"measurement": "Realtive Activity (%) Complex, Ub-lysozyme degradation", "setting": "[3]; Table VIII, None = 100, 2 mM of the nucleotide or 10 mM PPi", "value": 109, "unit": "%"},
      {"measurement": "effect on formation of the proteasome-multipain complex, in words", "setting": "[4]", "value": "completely prevented complex formation"}
    ]},
    {"molecule": "CN", "note": "[Methylamine]", "values": [
      {"measurement": "Myofibrillar Proteins 3-Methylhistidine Release", "setting": "[5]; None = 5.11 ± 0.21, as E65", "value": "5.05 ± 0.19", "unit": "pmol/mg/2h"},
      {"measurement": "Total Proteins Tyrosine Release", "setting": "[5]; soleus three days after section of the sciatic nerve, None = 328 ± 10, methylamine 10 μM, E64c 50 μM, dinitrophenol 0.1 mM, 2-deoxyglucose 5 mM", "value": "330 ± 11", "unit": "pmol/mg/2h"}
    ]},
    {"molecule": "Cystatin A: egg-white cystatin, a potent inhibitor of many papain-like thiol proteinases (protein, UniProt P01040 1-98, looked up) Cystatin-A: MIPGGLSEAKPATPEIQEIVDKVKPQLEEKTNETYGKLEAVQYKTQVVAGTNYYIKVRAGDNKYMHLKVFKSLPGQNEDLVLTGYQVDKNKDDELTGF", "values": [
      {"measurement": "Realtive Activity (%) Proteasome (sLLVT-MCA)", "setting": "[6]", "value": 93, "unit": "%"},
      {"measurement": "Relative activity (%) […]-MCA", "setting": "[6]", "value": 93, "unit": "%"},
      {"measurement": "Realtive Activity (%) Multipain", "setting": "[2]", "value": 30, "unit": "%"},
      {"measurement": "Relative activity (%) NEW PROTEASE OH/O2 - treated hemoglobin", "setting": "[2]", "value": 27, "unit": "%"},
      {"measurement": "Relative activity (%) NEW PROTEASE Ub-lysozyme", "setting": "[2]", "value": 30, "unit": "%"},
      {"measurement": "Relative activity (%) NEW PROTEASE lysozyme", "setting": "[2]", "value": 24, "unit": "%"},
      {"measurement": "Ki", "setting": "[2]; read-out: Ki, inhibition of proteolysis by multipain", "value": "< 1", "unit": "µM"},
      {"measurement": "Realtive Activity (%) Complex (Ub-125I-Lysozyme)", "setting": "[3]", "value": 35, "unit": "%"},
      {"measurement": "inhibition of conjugate breakdown by the complex", "setting": "[3]", "value": 65, "unit": "%"},
      {"measurement": "Degradation in 2nd hour", "setting": "[7]; Complex added initially, None = 65", "value": 18, "unit": "ng"},
      {"measurement": "Degradation in 2nd hour", "setting": "[7]; Multipain added initially, None = 74", "value": 4, "unit": "ng"},
      {"measurement": "effect on formation of the proteasome-multipain complex, in words", "setting": "[4]", "value": "did not occur; also recorded: blocked"}
    ]}
  ]
}
